{
  "source": "the RNAGym collection of RNA variant scans (doi:10.1073/pnas.2313332121)",
  "parents": {"B1": {"name": "TPR 5TU (parent)", "chain": "GGAUCUUCUCGAUCUAACAAAAAAGACAAAUCUGCCACAAAGCUUGAGAGCAUCUUCGGAUGCAGAGGCGGCAGCCUUCGGUGGCGCGAUAGCGCCAACGUUCUCAACUAUGACACGCAAAACGCGUGCUCCGUUGAAUGGAGUUUAUCAUG"}},
  "note": "This sample holds only a part of the variants without activity.",
  "data": [
    {"variants_of": "B1", "experiment": "polymerase ribozyme fitness, log enrichment relative to wild type (log ratio); higher = more active; in vitro selection for triplet polymerase activity", "method_in_brief": "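Fitness compares each genotype's enrichment to that of the wild type on a logarithmic scale, averaging replicates with inverse-variance weights. The logarithm is base 2. Enrichment came from Illumina sequencing of input and output libraries after one triplicate round of in vitro selection, which included frozen incubation at −7 °C, of PCR-built, transcribed mutant libraries of each subunit of a heterodimeric triplet polymerase ribozyme. Only genotypes with ≥10 input reads and ≥1 read per output were kept.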", "values": [
      {"variant": "U13G A17U A21G A22G G50C G59A G70C C72U C125G", "polymerase ribozyme fitness (log ratio)": "≤ -4.2"},
      {"variant": "U13A A40U U55A C129A", "polymerase ribozyme fitness (log ratio)": "≤ -4.2"},
      {"variant": "U13C A37G G126C", "polymerase ribozyme fitness (log ratio)": -1.85},
      {"variant": "U13C U53A A91U A107U", "polymerase ribozyme fitness (log ratio)": "≤ -4.2"},
      {"variant": "A12U C18U A19G U56G A60U C76G C108U C114G", "polymerase ribozyme fitness (log ratio)": "≤ -4.2"},
      {"variant": "U13C A26C A52C", "polymerase ribozyme fitness (log ratio)": -3.55},
      {"variant": "A12G U56G C85G", "polymerase ribozyme fitness (log ratio)": -2.2},
      {"variant": "U13C U45G G81A C85U C118U G126A", "polymerase ribozyme fitness (log ratio)": "≤ -4.2"},
      {"variant": "A12U U55G A60U G83C A137U G141U", "polymerase ribozyme fitness (log ratio)": "≤ -4.2"},
      {"variant": "A12U C87A C103G U135G", "polymerase ribozyme fitness (log ratio)": "≤ -4.2"},
      {"variant": "A12U C87G", "polymerase ribozyme fitness (log ratio)": -4.2},
      {"variant": "A12U C87A", "polymerase ribozyme fitness (log ratio)": -4.15},
      {"variant": "A12U C35A C79U C96A A110G C118U C125A", "polymerase ribozyme fitness (log ratio)": "≤ -4.2"},
      {"variant": "A12U C85U A97G C116U", "polymerase ribozyme fitness (log ratio)": -1.53},
      {"variant": "A12U G86A U101G", "polymerase ribozyme fitness (log ratio)": -0.714},
      {"variant": "A12U G67U G84A A110U", "polymerase ribozyme fitness (log ratio)": "≤ -4.2"},
      {"variant": "A12U A21U C38A A106U C116A A119G", "polymerase ribozyme fitness (log ratio)": -3.18},
      {"variant": "A12U A40U C85U U145C", "polymerase ribozyme fitness (log ratio)": -1.21},
      {"variant": "A12G U55A U61G C125G", "polymerase ribozyme fitness (log ratio)": -3.62},
      {"variant": "U13A C105A A107C U134A", "polymerase ribozyme fitness (log ratio)": "≤ -4.2"},
      {"variant": "A12U C18A C36U C57A C95U A97G A98U C125U", "polymerase ribozyme fitness (log ratio)": -3.95},
      {"variant": "U13A A30G A37C G68U", "polymerase ribozyme fitness (log ratio)": "≤ -4.2"},
      {"variant": "U13G A26U C32G U33A C54G A66U C118A U144A", "polymerase ribozyme fitness (log ratio)": "≤ -4.2"},
      {"variant": "U13C A16G A19C A28U C38U U55G A73C U77C C95G", "polymerase ribozyme fitness (log ratio)": "≤ -4.2"},
      {"variant": "A12U G46A C75U C87A C99U G117A", "polymerase ribozyme fitness (log ratio)": "≤ -4.2"},
      {"variant": "U13G A21U A22C U82G G92U A98C C116U", "polymerase ribozyme fitness (log ratio)": -1.59},
      {"variant": "A12G C87G", "polymerase ribozyme fitness (log ratio)": -3.83},
      {"variant": "A12G C87U", "polymerase ribozyme fitness (log ratio)": -0.54},
      {"variant": "U13C A24C U45G G84U U135C", "polymerase ribozyme fitness (log ratio)": "≤ -4.2"},
      {"variant": "U13A A41C A91U C96U", "polymerase ribozyme fitness (log ratio)": "≤ -4.2"},
      {"variant": "U13A C69A A120C", "polymerase ribozyme fitness (log ratio)": -2.74},
      {"variant": "A12U G143U", "polymerase ribozyme fitness (log ratio)": -3.14},
      {"variant": "A12U G59A C75G U127G", "polymerase ribozyme fitness (log ratio)": -4.12},
      {"variant": "A12U A23C C54U C116G A147C U151A", "polymerase ribozyme fitness (log ratio)": "≤ -4.2"},
      {"variant": "A12U U102G", "polymerase ribozyme fitness (log ratio)": -3.28},
      {"variant": "A12G C85U C118G C125A", "polymerase ribozyme fitness (log ratio)": -0.473},
      {"variant": "A12G U13G C38A A41U C95A U102C A137G", "polymerase ribozyme fitness (log ratio)": "≤ -4.2"},
      {"variant": "U13A A52G U56A C75U U78A C87U C93A G136C C149A", "polymerase ribozyme fitness (log ratio)": "≤ -4.2"},
      {"variant": "U13C U53G C87A A120U A142U U146A", "polymerase ribozyme fitness (log ratio)": "≤ -4.2"},
      {"variant": "A12U G42C C51U C93U C123A G124U", "polymerase ribozyme fitness (log ratio)": "≤ -4.2"},
      {"variant": "A12U G42C U61A A106U C132U", "polymerase ribozyme fitness (log ratio)": "≤ -4.2"},
      {"variant": "A12U C18G G92C", "polymerase ribozyme fitness (log ratio)": -2.01},
      {"variant": "A12U C87A A113U A115C U148A", "polymerase ribozyme fitness (log ratio)": "≤ -4.2"},
      {"variant": "A12U G59U C69A C96U", "polymerase ribozyme fitness (log ratio)": -2.45},
      {"variant": "U13G A24C C35A A49U C76G A91C", "polymerase ribozyme fitness (log ratio)": "≤ -4.2"},
      {"variant": "A12U A91G", "polymerase ribozyme fitness (log ratio)": -2.26},
      {"variant": "A12U A91U", "polymerase ribozyme fitness (log ratio)": "≤ -4.2"},
      {"variant": "U13A G25U C85G", "polymerase ribozyme fitness (log ratio)": -3.79},
      {"variant": "U13C A120G U130A", "polymerase ribozyme fitness (log ratio)": -3.95},
      {"variant": "A12U U61G C93U G94A U144G", "polymerase ribozyme fitness (log ratio)": -2.83},
      {"variant": "A12G G83C", "polymerase ribozyme fitness (log ratio)": -0.586},
      {"variant": "A12U A39C A52G C57G", "polymerase ribozyme fitness (log ratio)": -4.2},
      {"variant": "A12G G81A G92A C114A G152U", "polymerase ribozyme fitness (log ratio)": "≤ -4.2"},
      {"variant": "A12U C38G G59U", "polymerase ribozyme fitness (log ratio)": -0.492},
      {"variant": "U13A U55G C85U A121G", "polymerase ribozyme fitness (log ratio)": -1.11},
      {"variant": "A12G G92A U127A U139A G143A", "polymerase ribozyme fitness (log ratio)": "≤ -4.2"},
      {"variant": "U13A A16C A91G", "polymerase ribozyme fitness (log ratio)": -2.83},
      {"variant": "U13G A16U C85U U145G", "polymerase ribozyme fitness (log ratio)": -3.16},
      {"variant": "A12U A28U U55G A66C G74C G80C C85A C87U C96U", "polymerase ribozyme fitness (log ratio)": "≤ -4.2"},
      {"variant": "U13A C18U U55A A119G", "polymerase ribozyme fitness (log ratio)": -1.83},
      {"variant": "A12G U45G A49U A60G U61G A107U U127G", "polymerase ribozyme fitness (log ratio)": "≤ -4.2"},
      {"variant": "A12U C27U A73U C96G A97U A107G", "polymerase ribozyme fitness (log ratio)": "≤ -4.2"},
      {"variant": "A12U A16U A17U C27U A47U G48A C76G G86U U145A G152U", "polymerase ribozyme fitness (log ratio)": "≤ -4.2"},
      {"variant": "U13A C36A G50A C79U C96A", "polymerase ribozyme fitness (log ratio)": "≤ -4.2"},
      {"variant": "U13C C93U U134A", "polymerase ribozyme fitness (log ratio)": -3.08},
      {"variant": "A12U U144G", "polymerase ribozyme fitness (log ratio)": 0.918},
      {"variant": "A12U C35G G46A C57G A60C G92U C108G G143A A147G", "polymerase ribozyme fitness (log ratio)": "≤ -4.2"},
      {"variant": "U13C C38G U53A U82G G92A C105G C114U G128C U151C", "polymerase ribozyme fitness (log ratio)": "≤ -4.2"},
      {"variant": "A12U C27A A52C G71C C105U", "polymerase ribozyme fitness (log ratio)": "≤ -4.2"},
      {"variant": "A12U A22G A29C G42U C87U C93A", "polymerase ribozyme fitness (log ratio)": "≤ -4.2"},
      {"variant": "U13A A52U A73G C85A U134G", "polymerase ribozyme fitness (log ratio)": "≤ -4.2"},
      {"variant": "U13A C14G A19U U53A U55A G86C U135A", "polymerase ribozyme fitness (log ratio)": "≤ -4.2"},
      {"variant": "U13A G46U G59A A91G C95U G117A", "polymerase ribozyme fitness (log ratio)": "≤ -4.2"},
      {"variant": "A12U A23C C54G U55G C79A G83U G92A G124C U145A", "polymerase ribozyme fitness (log ratio)": "≤ -4.2"},
      {"variant": "U13A A29U U44A C72G C96U A97U", "polymerase ribozyme fitness (log ratio)": "≤ -4.2"},
      {"variant": "U13C U44A U55A G59U G84A A150C", "polymerase ribozyme fitness (log ratio)": "≤ -4.2"},
      {"variant": "A12U G25C A47G U56A C93G C108G", "polymerase ribozyme fitness (log ratio)": "≤ -4.2"},
      {"variant": "U13C A17C G67C U77G A89C A120C", "polymerase ribozyme fitness (log ratio)": "≤ -4.2"},
      {"variant": "A12U G48A C96A", "polymerase ribozyme fitness (log ratio)": -2.05},
      {"variant": "A12U C96U U144G", "polymerase ribozyme fitness (log ratio)": 0.0703},
      {"variant": "A12U A24C C63G C85U C87A G94C A107G G126A A137G G141U", "polymerase ribozyme fitness (log ratio)": "≤ -4.2"},
      {"variant": "U13C C14U C54A G92A", "polymerase ribozyme fitness (log ratio)": "≤ -4.2"},
      {"variant": "A12U G84C A142G", "polymerase ribozyme fitness (log ratio)": -3.93}
    ]}
  ]
}
